The supplement of paper PMC10126150
± gives the standard deviation of the averaged measurements.

These sequences were tested on ATP (assay: switch fluorescence ratio, 500 uM ATP over buffer (Cy3 cluster intensity, sum of 5 cycles each) (fold (ratio)); higher = stronger signal-on switching upon ATP binding; sequences stand for … in TCGTCGGCAGCGTCAGATGTGTATAAGAGACAGTTTTTTTTTTTTTTTTTTTTTTTTT…TC). Settings: aptamer strand: ATP DNA aptamer (quencher-CACCTGGGGGAGTATTGCGGAGGAAGG + anchor), 100 nM annealed; ATP concentration: 500 uM.
How it was run: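 Between each of five buffer/ATP cycles, the flow-cell was stripped with NaOH and re-annealed. Each cycle imaged Cy3-labelled switching-strand clusters, annealed to 100 nM quencher-labelled ATP aptamer on a modified Illumina MiSeq flow-cell, first in selection buffer and then after 15 min with 500 uM ATP at 22 °C. The fluorescence ratio is summed target-cycle over summed buffer-cycle Cy3 intensity per cluster, averaged per switch-domain sequence, with clusters outside 100-1000 RFU excluded.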
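Also: ATP exposure 15 min at 22 °C before imaging.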

In order of falling switch fluorescence ratio:
1. AATTATCCTT  1.07 ± 0.037
2. AATTAGCATC  1.06 ± 0.044
3. AATGGATACG  1.05 ± 0.019
4. AATTATACGT  1.05 ± 0.014
5. AATTAGCTGC  1.04 ± 0.043
6. AATTAGGTGA  1.04 ± 0.031
7. AATGGGTGCA  1.03 ± 0.054
8. AATGGTGTAC  1.03 ± 0.011
9. AATGTGTACT  1.03 ± 0.032
10. AATGTTTATC  1.027 ± 0.0084
11. AATTACCGCG  1.03 ± 0.023
12. AATTAGACGG  1.03 ± 0.046
13. AATTATGGTT  1.03 ± 0.012
14. AATTCACTAA  1.028 ± 0.0063
15. AATTCGTGCA  1.03 ± 0.036
16. AATGGCATGG  1.02 ± 0.016
17. AATTAACGGG  1.02 ± 0.019
18. AATTATCATC  1.02 ± 0.013
19. AATTATTCGA  1.02 ± 0.011
20. AATTATTCGT  1.024 ± 0.01
21. AATTTAAAAC  1.02 ± 0.031
22. AATTTAGGCC  1.023 ± 0.0087
23. AATGTAATTA  1.01 ± 0.011
24. AATGTGGGAA  1.01 ± 0.044
25. AATGTGTCA  1.01 ± 0.011
26. AATGTTCGTT  1.01 ± 0.014
27. AATTAATAAG  1.011 ± 0.0076
28. AATTAATGCA  1.01 ± 0.038
29. AATTAGCTGA  1.01 ± 0.029
30. AATTATGGTG  1.01 ± 0.012
31. AATTATTGGT  1.01 ± 0.026
32. AATTCAACAG  1.01 ± 0.03
33. AATTCAATGA  1.01 ± 0.045
34. AATTGAGTGT  1.01 ± 0.019
35. AATTGATTTT  1.01 ± 0.03
36. AATTGCAGAG  1.014 ± 0.0032
37. AATTTAGGGT  1.01 ± 0.028
38. AATTTATTTG  1.01 ± 0.037
39. AATGGAGTTT  1 ± 0.023
40. AATGGATTTC  1 ± 0.029
41. AATGGGAGGG  1 ± 0.032
42. AATGGGGAAA  1 ± 0.028
43. AATGGTGTAG  1.003 ± 0.0013
44. AATGTAAAGT  1.001 ± 0.0047
45. AATTACGTGT  1.0006 ± 0.00059
46. AATTATCGAC  1 ± 0.031
47. AATTGATTTA  1 ± 0.086
48. AATTGTTTTT  1 ± 0.021
49. AATTTAGGGA  1 ± 0.0089
50. AATGGATGGG  0.999 ± 0.011
51. AATGGTTTGT  0.999 ± 0.025
52. AATGTCAGCG  0.999 ± 0.037
53. AATTAGTATG  0.999 ± 0.014
54. AATGTCTCTC  0.998 ± 0.058
55. AATGTAATCA  0.997 ± 0.024
56. AATGTGCTAG  0.995 ± 0.021
57. AATTGTTAAC  0.995 ± 0.016
58. AATGGCTGGT  0.994 ± 0.017
59. AATGTGCTGG  0.993 ± 0.018
60. AATTATAGTT  0.99268 ± 5.5e-05
61. AATTGATTGT  0.993 ± 0.051
62. AATTTATTTT  0.991 ± 0.026
63. AATGTATGGG  0.99 ± 0.058
64. AATGTTCTGG  0.99 ± 0.032
65. AATGTTGCGT  0.99 ± 0.028
66. AATGGGCAGT  0.989 ± 0.029
67. AATTGGCCGG  0.989 ± 0.011
68. AATTTAGGAT  0.989 ± 0.027
69. AATGGGGGAT  0.988 ± 0.029
70. AATGTAAAAG  0.988 ± 0.039
71. AATTCAGCCA  0.9878 ± 0.0057
72. AATTGTAAAA  0.988 ± 0.027
73. AATTAGCCAT  0.987 ± 0.011
74. AATTCGCGTT  0.9868 ± 0.004
75. AATGGGGGG  0.986 ± 0.039
76. AATTTATGGG  0.986 ± 0.021
77. AATGGGGAAG  0.985 ± 0.018
78. AATGTTGTGG  0.985 ± 0.031
79. AATTGTATAT  0.985 ± 0.042
80. AATTGTGAGT  0.985 ± 0.024
81. AATGGGTGAT  0.9826 ± 0.0024
82. AATGGTATGG  0.982 ± 0.024
83. AATTGGTAAA  0.9816 ± 0.0044
84. AATTGTTTAG  0.982 ± 0.034
85. AATTTGACGT  0.981 ± 0.034
86. AATTTGAATT  0.98 ± 0.013
87. AATTGCGTTG  0.979 ± 0.025
88. AATTGGGGGA  0.979 ± 0.031
89. AATTTCTGTG  0.978 ± 0.035
90. AATGTGAAAA  0.976 ± 0.053
91. AATTAGGGCT  0.971 ± 0.026
92. AATGTTTTAC  0.97 ± 0.035
93. AATGGGAAAT  0.968 ± 0.059
94. AATTCGATAG  0.966 ± 0.0039
95. AATTCTGGTT  0.9664 ± 0.0018
96. AATGGTTCGG  0.962 ± 0.036
97. AATTGGTGCA  0.96 ± 0.011
98. AATGTTTATT  0.954 ± 0.01
99. AATGGTTTAT  0.9489 ± 0.0065
100. AATGTGGGTC  0.9392 ± 0.006
